In patent US20260193326A1 (published 2026):

Assays:
Assay in all cases: SPR, AAV amine-coupled to CM5 chip;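 also: nanobodies flowed as analyte at seven concentrations spanning 1–100 nM over immobilized AAV (500–800 RU), kinetic constants derived by fitting the binding curves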
AAV2 = molecular target: T1, AAV2 (adeno-associated virus 2, UniProt P03135 1-735)
T1 construct: also called adeno-associated virus serotype 2
Procedure: (§1) AAV was amine-coupled to a CM5 sensor chip at a density of 500-800 response units (RU). Nanobodies were injected at seven concentrations (1-100 nM) with a flow rate of 45 μL/min, and chip regeneration was performed using glycine-HCl (pH 1.5). Binding curves at different nanobody concentrations were used to calculate kinetic parameters (Kₐ, Kd, KD) (Table 2 and FIG. 2).

AAV8 = molecular target: T2, AAV8 (adeno-associated virus 8)
T2 construct: also called adeno-associated virus serotype 8
Procedure: as §1

AAV9 = molecular target: T3, AAV9 (adeno-associated virus 9)
T3 construct: also called adeno-associated virus serotype 9
Procedure: as §1

AAV5 = molecular target: T4, AAV5 (adeno-associated virus 5)
T4 construct: also called adeno-associated virus serotype 5
Procedure: as §1

Row | Binder | Kd (AAV2) | koff (AAV2) | kon (AAV2) | Kd (AAV8) | koff (AAV8) | kon (AAV8) | Kd (AAV9) | koff (AAV9) | kon (AAV9) | Kd (AAV5) | koff (AAV5) | kon (AAV5)
1 | A4-051 (VHH) VHH: VQLQESGGGLVQPGGSLRLSCAASGSSFVINTMGWYRRAPGKQRELVAAVTRGGSTNYADSVKGRFTISRDNAKNTVYLQMNSLRPEDTAVYYCHVDEVRQSSWTTSNLWGQGTQVTVSS | 907 nM | 0.00325 s⁻¹ | 3580 M⁻¹ s⁻¹ | 791 nM | 0.00466 s⁻¹ | 5890 M⁻¹ s⁻¹ | 712 nM | 0.00477 s⁻¹ | 6700 M⁻¹ s⁻¹ | 748 nM | 0.00507 s⁻¹ | 6780 M⁻¹ s⁻¹
2 | A4-068 (VHH) VHH: VQLQESGGGLVQTGGSLRLSCAASGRAFSLNTMGWYRQAPGKWRELVATVTRGGSTNYAGSVKGRFTISRDNAKNTVYLQMNNLRPEDTAVYYCHVDEVRESSWTTSNLWGQGTQVTVSS | 11.9 nM | 0.00167 s⁻¹ | 141000 M⁻¹ s⁻¹ | 182 nM | 0.00436 s⁻¹ | 24000 M⁻¹ s⁻¹ | 31.9 nM | 0.00349 s⁻¹ | 109000 M⁻¹ s⁻¹ | 45.3 nM | 0.00608 s⁻¹ | 134000 M⁻¹ s⁻¹
3 | A4-097 (VHH) VHH: VQLQESGGGLVQPGGSLRLSCIASGSIFSANTMGWYRQAPGKQRELVATITRGGNTNYGDSVKGRFTISRDNAKNTVYLQMNTLRPEDTAVYYCHVDEIRESSWTTSNLWGQGTQVTVSS | – | – | – | 12.4 nM | 0.00192 s⁻¹ | 155000 M⁻¹ s⁻¹ | 62.3 nM | 0.00816 s⁻¹ | 131000 M⁻¹ s⁻¹ | 578 nM | 0.00544 s⁻¹ | 9410 M⁻¹ s⁻¹
4 | A4-072 (VHH) VHH: VQLQESGGGLAQPGGSLRLSCAASGSSFVINTMGWYRQAPGKQREFVATVTRGGSTNYGEFVKGRFTISRDNAKNTVYLQMNSLRPEDTAVYYCHVDELRQSSWTTSNLWGQGTQVTVSS | 3.93 nM | 0.00021 s⁻¹ | 53500 M⁻¹ s⁻¹ | 27.1 nM | 0.00044 s⁻¹ | 16300 M⁻¹ s⁻¹ | 1.29 nM | 0.00018 s⁻¹ | 140000 M⁻¹ s⁻¹ | 3.79 nM | 0.00038 s⁻¹ | 100000 M⁻¹ s⁻¹
5 | A4-067 (VHH) VHH: VQLQESGGGLVQTGGSLRLSCAASGRAFSLNTMGWYRQAPGKWRELVATVTRGGSTNYAGSVKGRFTISRDNTKNTVYLQMNNLRPEDTAVYYCHVDEVRESSWTTSNLWGQGTQVTVSS | 16 nM | 3e-05 s⁻¹ | 1870 M⁻¹ s⁻¹ | 128 nM | 0.00044 s⁻¹ | 3440 M⁻¹ s⁻¹ | 106 nM | 0.00035 s⁻¹ | 3320 M⁻¹ s⁻¹ | 7.14 nM | 2e-05 s⁻¹ | 2800 M⁻¹ s⁻¹
6 | A4-074 (VHH) VHH: VQLQESGGGLVQSGGSLRLSCAASGSMFSLNTMGWYRQAPGKQRELVATITRGGGTSYADSVKGRFTISRDNAKNTVYLQMNSLRPEDTAVYYCHVDELRQSSWTTSNLWGQGTQVTVSS | 14.3 nM | 0.00157 s⁻¹ | 110000 M⁻¹ s⁻¹ | 19.2 nM | 0.00181 s⁻¹ | 94100 M⁻¹ s⁻¹ | 6.03 nM | 0.00017 s⁻¹ | 28200 M⁻¹ s⁻¹ | 4.64 nM | 0.00081 s⁻¹ | 175000 M⁻¹ s⁻¹
7 | A4-056 (VHH) VHH: VQLQESGGGLVQPGGSLRLSCAASGSAFSINTMGWYRQAPGKQREKVAAVTRGGSTNYADSVKGRFTISRDNAKNTVYLQMNSLRPEDTAVYYCHVDEVRQSSWTTSNLWGQGTQVTVSS | 224 nM | 0.00485 s⁻¹ | 21600 M⁻¹ s⁻¹ | 265 nM | 0.00779 s⁻¹ | 29400 M⁻¹ s⁻¹ | 96.9 nM | 0.00887 s⁻¹ | 91500 M⁻¹ s⁻¹ | 622 nM | 0.00648 s⁻¹ | 10400 M⁻¹ s⁻¹
8 | A4-071 (VHH) VHH: VQLQESGGGAVQAGGSLRLSCAASGSTFSINTMGWYRQAPGKQRELVATVTRGGSTNYGDFVKGRFTISRDNAKNTVYLQMNTLRPEDTAVYYCHLDEVRQSSWTTSNLWGQGTQVTVSS | 93 nM | 0.002 s⁻¹ | 21500 M⁻¹ s⁻¹ | 16.4 nM | 0.00137 s⁻¹ | 83300 M⁻¹ s⁻¹ | 30.9 nM | 0.00176 s⁻¹ | 57000 M⁻¹ s⁻¹ | 9.46 nM | 0.00171 s⁻¹ | 181000 M⁻¹ s⁻¹
9 | A4-091 (VHH) VHH: VQLQESGGGLVQPGGSLRLSCAASGSRFSINTMGWYRQRAGKQRELVATVTRDGSTTYANSVKGRFTISRDNAKNTVYLQMNSLRPEDTAVYYCHVDELRQSTWTTSNLWGQGTQVTVSS | – | – | – | 99.4 nM | 0.00091 s⁻¹ | 9160 M⁻¹ s⁻¹ | 34.5 nM | 0.0002 s⁻¹ | 5790 M⁻¹ s⁻¹ | 4.49 nM | 3e-05 s⁻¹ | 6690 M⁻¹ s⁻¹
10 | A4-054 (VHH) VHH: VQLQESGGGLVQPGGSLRLSCAASGSAFSINTMGWYRQAPGKQRELVAAVTRGGSTNYADSVKGRFTISRDNAKNTVYLQMNSLRPEDTAVYYCHVDEVRQSSWTTSNLWGQGTQVTVSS | 1060 nM | 0.00114 s⁻¹ | – | 368 nM | 0.0018 s⁻¹ | 4890 M⁻¹ s⁻¹ | 28.9 nM | 0.00025 s⁻¹ | 8660 M⁻¹ s⁻¹ | 213 nM | 0.00163 s⁻¹ | 7660 M⁻¹ s⁻¹
11 | A4-100 (VHH) VHH: VQLQESGGGLVQPGGSLRLSCAASGSIFVINTMGWYRQAPGKQRELVASLTRGGSTNYADSVKGRFTISRDNDKNTIYLQMNSLRPEDTAVYYCHVDEVRESTWTTSNIWGQGTQVTVSS | – | – | – | 36.2 nM | 0.00356 s⁻¹ | 98300 M⁻¹ s⁻¹ | 7.64 nM | 0.00126 s⁻¹ | 165000 M⁻¹ s⁻¹ | 6.75 nM | 0.00124 s⁻¹ | 184000 M⁻¹ s⁻¹
12 | A4-095 (VHH) VHH: VQLQESGGGLVQPGGSLRLSCAASGSSFSANTMGWYRQAPGKQRELVATITRGGNTNYGDSVKGRFTISRDNAKDTVYLQMNSLRPEDTAVYYCHIDEIRESTWTTSNLWGQGTQVTVSS | – | – | – | 2.25 nM | 0.00026 s⁻¹ | 116000 M⁻¹ s⁻¹ | 6.34 nM | 0.00114 s⁻¹ | 180000 M⁻¹ s⁻¹ | 14.5 nM | 0.00133 s⁻¹ | 91800 M⁻¹ s⁻¹
13 | A4-098 (VHH) VHH: VQLQESGGGLVQPGGSLRLSCIASGSIFSINTMGWYRQAPGKQRELVATITRGGNTNYGDSVKGRFTISRDNAKNTVYLQMNTLRPEDTAVYYCHVDEIRESSWTTSNLWGQGTQVTVSS | – | – | – | 23.3 nM | 0.00018 s⁻¹ | 7740 M⁻¹ s⁻¹ | 82.2 nM | 0.0006 s⁻¹ | 7300 M⁻¹ s⁻¹ | 130 nM | 0.00117 s⁻¹ | 9030 M⁻¹ s⁻¹
14 | A4-087 (VHH) VHH: VQLQESGGGLVQPGGSLRLSCAASGSRFSLNTMGWYRQAPGKQRELVAAVTRGGNTNYGDFVKGRFTISRDNAKNTVYLQMNSLRPEDTAVYYCHVDELRESSWTTSNLWGQGTQVTVSS | – | – | – | 1.05 nM | 0.00012 s⁻¹ | 115000 M⁻¹ s⁻¹ | 4.13 nM | 0.00023 s⁻¹ | 55700 M⁻¹ s⁻¹ | 1.69 nM | 0.0003 s⁻¹ | 177000 M⁻¹ s⁻¹
15 | A4-096 (VHH) VHH: VQLQESGGGLVQPGGSLRLSCIASGSSFSANTMGWYRQAPGKQRELVATITRGGNTNYGDSVKGRFTISRDNAKNTVYLQMNSLRPEDTAVYYCHIDEIRESTWTTSNLWGQGTQVTVSS | – | – | – | 15.4 nM | 0.00169 s⁻¹ | 110000 M⁻¹ s⁻¹ | 5.14 nM | 0.00064 s⁻¹ | 125000 M⁻¹ s⁻¹ | 48.9 nM | 0.00123 s⁻¹ | 25100 M⁻¹ s⁻¹
16 | A4-064 (VHH) VHH: VQLQESGGGLVQSGGSLRLSCAASGRNFSLNTVGWYRQAPGKQRELVATVTSGGGTNYAGSVKGRFTISRDNAKNTVYLQMNSLRPEDTAVYYCHVDEVRESTWTTSNLWGQGTQVTVSS | 75.7 nM | 0.0005 s⁻¹ | 6600 M⁻¹ s⁻¹ | 227 nM | 0.0017 s⁻¹ | 7500 M⁻¹ s⁻¹ | 420 nM | 0.00128 s⁻¹ | 3050 M⁻¹ s⁻¹ | 81.8 nM | 0.00046 s⁻¹ | 5620 M⁻¹ s⁻¹
17 | A4-086 (VHH) VHH: VQLQESGGGLVQPGGSLRLSCAASGSRFSLNTMGWYRQAPGKQRELVAAVTRGGNTNYADFVKGRFTISRDNAKNTVYLQMNSLRPEDTAVYYCHVDELRESSWTTSNLWGQGTQVTVSS | – | – | – | 0.76 nM | 6e-05 s⁻¹ | 78900 M⁻¹ s⁻¹ | 1.45 nM | 0.00026 s⁻¹ | 179000 M⁻¹ s⁻¹ | 23.1 nM | 0.00107 s⁻¹ | 46400 M⁻¹ s⁻¹
18 | A4-094 (VHH) VHH: VQLQESGGGLVQPGGSLRLSCVASGSIFVINTMGWYRQAPGKQRELVATVTRDGGTNYADSVKGRFTISRDNAKNTVYLQMNSLRPEDTAVYYCHIDEIRESSWTTSNLWGQGTQVTVSS | – | – | – | 86.5 nM | 0.00058 s⁻¹ | 6710 M⁻¹ s⁻¹ | 44.8 nM | 0.00043 s⁻¹ | 9600 M⁻¹ s⁻¹ | 171 nM | 0.00166 s⁻¹ | 9680 M⁻¹ s⁻¹
